Source: patent publication EP4302836A1 (Danmarks Tekniske Universitet, dated 2024)
Where a chain is given by its changes, count along the chain named.

What was measured:
[1] = molecular target: T1, Myotoxin II from Bothrops asper (Basic phospholipase A2 homolog 2, Uniprot P24605) (Bothrops asper, UniProt P24605 17-137); assay: cell-based or functional assay
[2] = molecular target: T1, Myotoxin II from Bothrops asper (Basic …); assay: expression-normalized capture (ENC) assay, antigen at 10 nM (data not shown)
[3] = molecular target: T1, Myotoxin II from Bothrops asper (Basic …); assay: monoclonal IgG ELISA, dilution series (Fig. 2A legend)

T1 sequence (P24605 17-137, one chain of several): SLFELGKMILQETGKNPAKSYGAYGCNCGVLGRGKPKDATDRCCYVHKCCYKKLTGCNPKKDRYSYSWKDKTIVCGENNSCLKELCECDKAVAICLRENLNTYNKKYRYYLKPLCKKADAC

B1: TPL0039_05_G08 IgG (antibody, V domains shown)
VH: EVQLVESGGGVVQPGRSLRLSCAASGFTFSSYGMHWVRQAPGKGLEWVAVISYDGSNKYYADSVKGRFTISRDNSKNTLYLQMNSLRAEDTAVYYCARTNYDSGDAFDIWGQGTLVTVSS
VL: NFMLTQPHSVSESPGKTVTISCTRSSGSIASNYVQWYQQRPGSSPTTVIYEDNQRPSGVPDRFSGSIDSSSNSASLTISGLKTEDEADYYCQSYDSSTVVFGGGTKLTVLG
For B1, the “fibroblast viability assay (CellTiter-Glo), toxin:IgG ratio for full neutralization” value [1] was 1 mol IgG per mol toxin (printed as toxin:IgG 1:1).

B2: TPL0039_05_B12 IgG (antibody, V domains shown)
VH: EVQLVESGGGVVQPGRSLRLSCAASGFTFSSYGMHWVRQAPGKGLEWVAVISYDGSNKYYADSVKGRFTISRDNSKNTLYLQMNSLRAEDTAVYYCAGWTEGDAFDIWGQGTLVTVSS
VL: B1 VL with S44A, T46S, Q54R, S70A, T98S, L107I
B2 was tested, and the “fibroblast viability assay (CellTiter-Glo), toxin:IgG ratio for full neutralization” value [1] was 0.5 mol IgG per mol toxin (printed as toxin:IgG 1:0.5).

B3: TPL0039_05_B04 IgG (antibody, V domains shown)
VH: B2 VH with V5L, G98R, W99V, T100G, G102N, D103E, L113M
VL: B1 VL with S31R, S44A
B3 was tested, and the “fibroblast viability assay (CellTiter-Glo), toxin:IgG ratio for full neutralization” value [1] was 0.5 mol IgG per mol toxin (printed as toxin:IgG 1:0.5).

B4: TPL0039_05_F04 scFv (scFv, V domains shown)
VH: QVQLVESGGGVVQPGRSPRLSCAASGFTFSSYGMHWVRQAPGKGLEWVAVISYDGSNKYYADSVKGRFTISRDNSKNTLYLQMNSLRAEDTAVYYCAKDLEYSSSSWGQGTLVTVSS
VL: B1 VL with Y37F, N53D, D88T, Y90F, L107V
B4: binds [2].

B5: TPL0039_05_F04 IgG (antibody, V domains shown)
VH: B4 VH
VL: B1 VL with Y37F, N53D, D88T, Y90F, L107V
B5: binds [3].

B6: TPL0039_05_A03 IgG (antibody, V domains shown)
VH: QVQLVESGGGLAKPGRSLRLSCAVSGFTFSSYGMHWVRQAPGKGLEWVAVISYDGSNKYYADSVKGRFTISRDNSKNTLYLQMNSLRAEDTAVYYCASTLQQLDAFDIWGQGTMVTVSS
VL: B1 VL with V18I, S44V, T47P, N53D, Q54R, T98S, L107I
For B6, the “fibroblast viability assay (CellTiter-Glo), toxin:IgG ratio for full neutralization” value [1] was 0.5 mol IgG per mol toxin (printed as toxin:IgG 1:0.5).
